Publication PMC7952905

Biological target: human ACE2 extracellular domain (19-615) (human) (UniProt Q9BYF1)
Experiment: SPR

RaTG13 RBD (333-526) (from UniProt A0ABF7PLN6 333-526) (domain or fragment; other documents disagree on this pair)
Kd: 500 nM
